Assay [1] deals with T1, rHuman CD44/Fc Chimera, CF (R&D Systems Cat#3660-CD) (human, UniProt P16070 21-220).
T1 construct: Bought Fc chimera; Fc part of the bought chimera not given
The assay can be described thus: ECL (MSD Multi-Spot) binding, antigen spotted on plate; Fab 1000 nM.

Assay [2] addresses T2, rHuman Notch-1/Fc Chimera, CF (R&D Systems Cat#3647-TK) (human, UniProt P46531 19-526).
T2 construct: Bought Fc chimera; Fc part of the bought chimera not given
The description is as above.

In assay [3] the target is T3, rHuman HGF R/c-MET/Fc Chimera, CF (R&D Systems Cat#358-MT/CF) (human, UniProt P08581 25-932).
T3 construct: Bought Fc chimera; also called HGF R/Fc; hepatocyte growth factor receptor; Fc part of the bought chimera not given
The description is as above.

The target of assay [4] is T4, rHuman P-Cadherin/Fc Chimera, CF (R&D Systems Cat#861-PC) (human, UniProt P22223 108-654).
T4 construct: Bought Fc chimera; Fc part of the bought chimera not given
Described as above.

Assay [5] addresses T5, rHuman IGF-1 sR, CF (R&D Systems Cat#391-GR) (human, UniProt P08069 31-932).
T5 construct: Bought soluble receptor; also called insulin-like growth factor-1 soluble receptor; IGF-R1
Described as above.

In assay [6] the target is T6, Recombinant Human DLL4 (R&D Systems Cat#1506-D4/CF) (human, UniProt Q9NR61 27-524).
T6 construct: Bought recombinant protein; also called delta-like protein 4
The assay is described as above.

In assay [7] the target is T7, rHuman ErbB2/Fc Chimera, CF (R&D Systems Cat#1129-ER) (human, UniProt P04626 23-652).
T7 construct: Bought Fc chimera; also called human epidermal growth factor 2 receptor; HER2/neu; Fc part of the bought chimera not given
The description is as above.

For assay [8], the target named is T8, rHuman Erythropoietin R/Fc Chimera, CF (R&D Systems Cat#963-ER) (human, UniProt P19235 25-250).
T8 construct: Bought Fc chimera; also called EPO R/Fc; erythropoietin receptor; Fc part of the bought chimera not given
T8 sequence: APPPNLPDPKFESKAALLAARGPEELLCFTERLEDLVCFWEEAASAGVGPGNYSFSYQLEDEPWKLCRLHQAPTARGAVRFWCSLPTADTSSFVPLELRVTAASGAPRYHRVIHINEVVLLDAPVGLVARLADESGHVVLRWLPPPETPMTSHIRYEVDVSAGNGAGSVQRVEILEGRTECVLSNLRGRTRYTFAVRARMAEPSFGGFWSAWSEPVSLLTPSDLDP
Described as above.

Assay [9] has as its target T9, rHuman EGF R/Fc Chimera, CF (R&D Systems Cat#344-ER) (human, UniProt P00533 25-645).
T9 construct: Bought Fc chimera; also called epidermal growth factor receptor; Fc part of the bought chimera not given
Described as above.

For assay [10], the target named is T1, rHuman CD44/Fc Chimera, CF (R&D Systems …). The assay can be described thus: ECL (MSD Multi-Spot) binding, antigen spotted on plate; Fab 10 nM.
The target of assay [11] is T2, rHuman Notch-1/Fc Chimera, CF (R&D …). The assay is described as above.
Assay [12] addresses T3, rHuman HGF R/c-MET/Fc Chimera, CF (R&D …). The assay is described as above.
The target in assay [13] is T4, rHuman P-Cadherin/Fc Chimera, CF (R&D …). The assay is described as above.
Assay [14] deals with T5, rHuman IGF-1 sR, CF (R&D Systems …). The assay is described as above.
Assay [15] concerns the target T6, Recombinant Human DLL4 (R&D Systems …). Described as above.
The target of assay [16] is T7, rHuman ErbB2/Fc Chimera, CF (R&D …). Described as above.
Assay [17] concerns the target T8, rHuman Erythropoietin R/Fc Chimera, CF …. The description is as above.
Assay [18] concerns the target T9, rHuman EGF R/Fc Chimera, CF (R&D …). Described as above.
Assay [19] addresses T1, rHuman CD44/Fc Chimera, CF (R&D Systems …). Kind of assay: ECL (MSD Multi-Spot) binding, antigen spotted on plate; Fab 1000 nM. The source holds these as a separate data set.
Assay [20] deals with T2, rHuman Notch-1/Fc Chimera, CF (R&D …). The assay is described as above. This is another data set of the same source.
Assay [21] has as its target T3, rHuman HGF R/c-MET/Fc Chimera, CF (R&D …). Described as above. This is another data set of the same source.
For assay [22], the target named is T4, rHuman P-Cadherin/Fc Chimera, CF (R&D …). Described as above. This is another data set of the same source.
Assay [23] concerns the target T5, rHuman IGF-1 sR, CF (R&D Systems …). The description is as above. This is another data set of the same source.
In assay [24] the target is T6, Recombinant Human DLL4 (R&D Systems …). The assay is described as above. The source holds these as a separate data set.
The target of assay [25] is T7, rHuman ErbB2/Fc Chimera, CF (R&D …). The description is as above. The source holds these as a separate data set.
In assay [26] the target is T8, rHuman Erythropoietin R/Fc Chimera, CF …. The description is as above. The source holds these as a separate data set.
The target of assay [27] is T9, rHuman EGF R/Fc Chimera, CF (R&D …). Described as above. The source holds these as a separate data set.
Assay [28] deals with T1, rHuman CD44/Fc Chimera, CF (R&D Systems …). Kind of assay: ECL (MSD Multi-Spot) binding, antigen spotted on plate; Fab 10 nM. This is another data set of the same source.
In assay [29] the target is T2, rHuman Notch-1/Fc Chimera, CF (R&D …). The description is as above. This is another data set of the same source.
For assay [30], the target named is T3, rHuman HGF R/c-MET/Fc Chimera, CF (R&D …). The assay is described as above. This is another data set of the same source.
Assay [31] has as its target T4, rHuman P-Cadherin/Fc Chimera, CF (R&D …). The description is as above. The source holds these as a separate data set.
The target of assay [32] is T5, rHuman IGF-1 sR, CF (R&D Systems …). The description is as above. The source holds these as a separate data set.
The target in assay [33] is T6, Recombinant Human DLL4 (R&D Systems …). The assay is described as above. This is another data set of the same source.
The target of assay [34] is T7, rHuman ErbB2/Fc Chimera, CF (R&D …). Described as above. This is another data set of the same source.
The target in assay [35] is T8, rHuman Erythropoietin R/Fc Chimera, CF …. Described as above. The source holds these as a separate data set.
Assay [36] concerns the target T9, rHuman EGF R/Fc Chimera, CF (R&D …). The assay is described as above. The source holds these as a separate data set.

Our source for the ECL signal values is US20120058906A1 (published 2012).

Substitutions are numbered along the chain they refer to.
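Note: blank spot per well as comparator with Hit at signal to blank ratio of 4 or more.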

B1: Fab VH1-46_IGHD6-6*01_IGHJ1*01_S102A_S103P_S104F & L6_IGKJ1*01 (Fab, V domains shown)
VH: QVQLVQSGAEVKKPGASVKVSCKASGYTFTSYYMHWVRQAPGQGLEWMGIINPSGGSTSYAQKFQGRVTMTRDTSTSTVYMELSSLRSEDTAVYYCAREEYAPFSAEYFQHWGQGTLVTVSS
VL: not shown
notes: Fab made in E. coli; The heavy chain also carries the CH1 with Flag and His tags of Plasmid A, and the light chain the kappa constant region of Plasmid C
For B1, the ECL signal in assay [1] amounted to 1310; in [2], 1620; in assay [3] it was 1580; in [4] it was 2500; in assay [5] it was 1180; in assay [6], 73300. Besides, the ECL signal in [7] was determined as 1290; in [8], 1660; in assay [9], 2430; in assay [10], 887; in assay [11], 1140; in assay [12], 691. Besides, the ECL signal in [13] worked out at 894; in assay [14], 720; in assay [15], 345000; in assay [16], 842; in assay [17], 1110; in assay [18] it was 809.

B2: Fab VH1-46_IGHD6-6*01_IGHJ1*01_S102A & L6_IGKJ1*01 (Fab, V domains shown)
VH: B1 VH with P103S, F104S
VL: not shown
notes: as for B1
Consider B2, for which the ECL signal in assay [19] stood at 1090; in assay [20], 1250; in assay [21], 1660; in assay [22], 1500; in assay [23], 1170; in assay [24], 22200. The ECL signal amounted to 946 in [25]; 1320 in assay [26]; 1600 in assay [27]; 681 in [28]; 647 in [29]; 698 in [30]. The ECL signal was found to be 691 in assay [31]; 657 in assay [32]; 38700 in assay [33]; 670 in assay [34]; 761 in [35]; 677 in assay [36].
